Experimental data reported in article doi:10.1101/2025.07.24.666444.

Legend:
[1] = molecular target: AtPCO4 Y73R (Arabidopsis thaliana)
[2] = molecular target: AtPCO4 Y183F (Arabidopsis thaliana)
[3] = molecular target: AtPCO4 V105G (Arabidopsis thaliana)
[4] = molecular target: AtPCO4 S107L (Arabidopsis thaliana)
[5] = molecular target: AtPCO4 C173A (Arabidopsis thaliana); experiment: other fluorescence titration
[6] = molecular target: AtPCO4 Y73R (Arabidopsis thaliana); experiment: other fluorescence titration
[7] = molecular target: AtPCO4 D177E (Arabidopsis thaliana); experiment: other fluorescence titration
[8] = molecular target: AtPCO4 Y183F (Arabidopsis thaliana); experiment: other fluorescence titration

catalytic constant (kcat) of RAP2.12 (2-15) oxidation [1]: 0.0167 s⁻¹ | catalytic constant (kcat) of RAP2.12 (2-15) oxidation [2]: 0.5 s⁻¹ | Michaelis-Menten constant (KM) for RAP2.12 (2-15) in the activity assay [3]: 97 µM | Michaelis-Menten constant (KM) for RAP2.12 (2-15) in the activity assay [4]: 99 µM | Kd [5]: 250 µM | Kd [6]: 3000 µM | Kd [7]: 150 µM | Kd [8]: 3500 µM
Substance: RAP2.12_(2-15) peptide substrate (from UniProt Q9SSA8 2-15)
